Earlier results on two substances are cited in patent publication US20230355537A1, “PROMOTING TRAINED IMMUNITY WITH THERAPEUTIC NANOBIOLOGIC COMPOSITIONS” (Icahn School of Medicine at Mount Sinai, priority 2017, published 2023).

One data set has as its target T1, PD-1 (Homo sapiens, UniProt Q15116).
T1 construct: A phase II clinical trial in subjects with diffuse large B-cell lymphoma (DLBCL); host or cells: human trial subjects (endogenous PD-1 on their immune cells)

The next data set has as its target T2, PD-L1 (Homo sapiens, UniProt Q9NZQ7).
T2 construct: in subjects with advanced-stage NSCLC, melanoma, RCC, or ovarian cancer; host or cells: human trial subjects (endogenous PD-L1 on tumour and immune cells)
The settings on record: in vivo.

T1 sequence (Q15116 25-288): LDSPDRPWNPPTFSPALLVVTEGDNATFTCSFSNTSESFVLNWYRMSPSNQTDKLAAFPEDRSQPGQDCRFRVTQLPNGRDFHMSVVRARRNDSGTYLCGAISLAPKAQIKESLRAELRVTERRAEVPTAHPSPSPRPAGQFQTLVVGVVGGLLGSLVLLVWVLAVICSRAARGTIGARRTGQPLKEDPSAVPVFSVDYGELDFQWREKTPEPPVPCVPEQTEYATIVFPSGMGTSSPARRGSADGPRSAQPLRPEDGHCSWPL
T2 sequence (Q9NZQ7 19-290): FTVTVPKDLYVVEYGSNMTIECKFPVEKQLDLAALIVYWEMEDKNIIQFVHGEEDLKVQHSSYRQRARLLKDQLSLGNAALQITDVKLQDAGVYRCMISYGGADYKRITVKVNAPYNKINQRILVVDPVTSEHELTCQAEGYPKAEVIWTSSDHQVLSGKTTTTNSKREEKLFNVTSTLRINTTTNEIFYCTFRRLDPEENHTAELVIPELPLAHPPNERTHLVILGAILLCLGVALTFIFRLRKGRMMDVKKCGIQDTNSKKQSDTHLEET

For the substance “CT-011: humanized IgGl monoclonal antibody against PD-I”, in the data set with PD-1 (DLBCL, preliminary results), the subjects alive was 82% and the “subjects progression-free at the end of the follow-up period” value is recorded as 70%. For the same substance, the “activity of natural killer cells” value with PD-1 (in vivo) was “augments”.

As to Medi 4736: anti-PD-LI antibody, the clinical activity result with PD-L1 is on record as “durable clinical activity”.
